T1: recombinant IL-3Rα ectodomain (Homo sapiens, UniProt P26951)
T1 construct: Immobilisation of recombinant IL-3Rα ectodomain (Sino Biologicals) was done until 761 RU; purchased Sino Biologicals
T1 sequence (P26951 19-305 limits assumed): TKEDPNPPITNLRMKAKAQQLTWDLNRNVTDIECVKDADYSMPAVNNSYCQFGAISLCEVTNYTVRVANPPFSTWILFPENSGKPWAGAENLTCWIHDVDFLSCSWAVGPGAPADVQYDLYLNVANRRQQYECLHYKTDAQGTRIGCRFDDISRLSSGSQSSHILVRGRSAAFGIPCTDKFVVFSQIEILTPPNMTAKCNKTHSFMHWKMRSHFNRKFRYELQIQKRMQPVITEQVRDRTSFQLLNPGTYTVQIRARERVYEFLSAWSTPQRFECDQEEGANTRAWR

T2: human IL12Rβ2 extracellular domain Fc-fusion (Homo sapiens, UniProt Q99665)
T2 construct: Fc-fusions of human IL12Rβ1, IL12Rβ2 and IL-23R extracellular domains; purchased R&D Systems #1959-B2
T2 sequence (Q99665 24-622 limits assumed): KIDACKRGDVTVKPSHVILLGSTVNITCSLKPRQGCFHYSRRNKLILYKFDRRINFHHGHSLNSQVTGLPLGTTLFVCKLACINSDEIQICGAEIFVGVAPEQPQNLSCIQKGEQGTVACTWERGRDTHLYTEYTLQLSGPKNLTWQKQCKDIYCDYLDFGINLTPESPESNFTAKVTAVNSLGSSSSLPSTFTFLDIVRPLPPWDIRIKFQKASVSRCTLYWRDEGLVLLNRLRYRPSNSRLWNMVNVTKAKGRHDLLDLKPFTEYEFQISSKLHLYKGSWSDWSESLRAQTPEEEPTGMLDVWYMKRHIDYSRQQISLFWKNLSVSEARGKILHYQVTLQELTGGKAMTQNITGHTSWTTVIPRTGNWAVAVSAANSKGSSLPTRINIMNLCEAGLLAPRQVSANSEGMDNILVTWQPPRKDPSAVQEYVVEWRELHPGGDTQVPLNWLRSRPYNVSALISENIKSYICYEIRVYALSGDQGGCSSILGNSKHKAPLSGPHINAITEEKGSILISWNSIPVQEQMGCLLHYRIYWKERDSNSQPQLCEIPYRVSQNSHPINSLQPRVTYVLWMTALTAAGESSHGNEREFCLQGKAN

T3: human IL-23R extracellular domain Fc-fusion (Homo sapiens, UniProt Q5VWK5)
T3 construct: Fc-fusions of human IL12Rβ1, IL12Rβ2 and IL-23R extracellular domains; purchased R&D Systems #1400-IR
T3 sequence (Q5VWK5 24-355 limits assumed): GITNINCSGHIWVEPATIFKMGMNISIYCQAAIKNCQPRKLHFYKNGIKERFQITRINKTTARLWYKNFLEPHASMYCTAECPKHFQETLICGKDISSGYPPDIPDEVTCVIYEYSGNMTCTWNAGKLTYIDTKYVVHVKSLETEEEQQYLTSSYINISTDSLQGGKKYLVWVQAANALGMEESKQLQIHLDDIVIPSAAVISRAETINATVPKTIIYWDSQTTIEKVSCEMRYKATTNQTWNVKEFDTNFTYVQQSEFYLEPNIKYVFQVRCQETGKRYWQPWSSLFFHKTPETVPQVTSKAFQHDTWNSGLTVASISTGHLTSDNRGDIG


Tests used:
Assay type in all cases: binding
[1] = target: T1, recombinant IL-3Rα ectodomain; assay: SPR (ProteOn) on recombinant IL-3Rα ectodomain
Protocol: The affinities of CD123 specific Nanobodies were further investigated via Surface Plasmon Resonance (SPR) at ProteOn. Immobilisation of recombinant IL-3Rα ectodomain (Sino Biologicals) was done until 761 RU. The Nanobodies were applied at a highest concentration of 1 μM, followed by a three-fold titration, covering 5 further concentrations ranging from 1 μM to 4.1 nM. These were then applied in a single injection cycle, utilising the ProteOn's specific one-shot kinetics approach for kinetic analysis. Evaluation of the association/dissociation data was performed by fitting a 1:1 interaction model (Langmuir binding model). […] For CD123 Nanobodies the obtained KD values correlated well with the apparent affinities retrieved by cell binding EC50 values (see Table 3).

[2] = target: T2, human IL12Rβ2 extracellular domain Fc-fusion; assay: SPR (Biacore T100) on IL12Rβ2-Fc
Protocol: (§1) The precise binding affinities of the purified Nanobodies were determined in a multi-cycle kinetic analysis using Surface Plasmon Resonance analysis (Biacore T100) on Fc-fusions of human IL12Rβ1, IL12Rβ2 and IL-23R extracellular domains (R&D Systems, #839-B1, #1959-B2, #1400-IR). Sensorchips CM5 were immobilized with anti-hIgG antibody (GE Healthcare, BR-1008-39), after which receptors were captured at 5 μg/ml protein and contact time of 120 seconds. Running buffer used was HBS-EP+ (GE Healthcare, BR-1006-69) at 25° C., with a flow-rate of […]. For immobilization by amine coupling, EDC/NHS was used for activation and ethanolamine HCl for deactivation (Biacore, amine coupling kit). Nanobodies were evaluated at a concentration range between 1.37 nM and 3 μM. Nanobodies were allowed to associate for 2 min and to dissociate for 15 min at a flow rate of […]. In between injections, the surfaces were regenerated with a 3 min pulse of 3M MgCl2 and 2 min stabilization period. Evaluation of the association/dissociation data was performed by fitting a 1:1 interaction model (Langmuir binding model) by Biacore TWO software v2.0.3.

[3] = target: T3, human IL-23R extracellular domain Fc-fusion; assay: SPR (Biacore T100) on IL-23R-Fc
Protocol: as §1

Row | Molecule | SPR - IL-3Ra ka [1] | SPR - IL-3Ra kd [1] | also measured
1 | 55B04: CD123 building block, SEQ ID NO: 9 (protein) VHH: EVQLVESGGGLVQPGGSLRLSCAASGINFRFNSMGWWRRRAPGKEREWVAAITSGDITNYRDSVRGRFTISRDNVKNTVYLQMNTLKLEDTAVYYCNTFPPIADYWGLGTQVTVSS | 504000 M⁻¹ s⁻¹ | 0.00794 s⁻¹ | –
2 | IL12Rb2#2: IL-12Rβ2 specific ligand competing Nanobody (protein) VHH: EVQLVESGGRLVQAGDSLRLSCAASGRTFTSYRMGWFRQAPGKEREFVSALRWSSGNIDYTYYADSVKGRFSISGDYAKNTVYLQMNSLKAEDTAVYYCAASTRWGVMESDTEYTSWGQGTLVTVSS | – | – | Binding kinetics (SPR) ka (1/Ms), IL12Rβ2 [2]: 270000 M⁻¹ s⁻¹; Binding kinetics (SPR) kd (1/s), IL12Rβ2 [2]: 0.0018 s⁻¹
3 | 51D09: CD123 building block, SEQ ID NO: 10 (protein) VHH: EVQLVESGGGLVQPGGSLRLSCAASGSIFSGNTMGWYRQAPGKQRELVAAISSGGSTDYADSVKGRFTISRDNSKNTVYLQMNSLRPEDTAVYYCNAAILLYRLYGYEEGDYWGLGTLVTVSS | 37800 M⁻¹ s⁻¹ | 0.000516 s⁻¹ | –
4 | IL23R#19: IL-23R specific ligand competing Nanobody (protein) VHH: EVQLVESGGGLVQPGGSLTLSCVASGRTFSTDVMGWFRQAPGKEREFVAAHRTSGISTVYAASVKGRFTISRDNAKNTVYLGMKSLKPEDTAVYVCAAGSDASGGYDYWGQGTLVTVSS | – | – | Binding kinetics (SPR) ka (1/Ms), IL-23R [3]: 730000 M⁻¹ s⁻¹; Binding kinetics (SPR) kd (1/s), IL-23R [3]: 0.0081 s⁻¹
5 | 50F07: CD123 building block, SEQ ID NO: 12 (protein) VHH: EVQLVESGGGLVQPGGSLRLSCTGSGSTFSINAMGWYRQAPGKQRELVAAITSGGRTNYADSVKGRFTISRDNSKNTVYLQMNSLRPEDTAVYYCNARISAGTAFWLWSDYEYWGLGTLVTVSS | 102000 M⁻¹ s⁻¹ | 0.00758 s⁻¹ | –

More lines, main results first:

Row | SPR - IL-3Ra ka [1] | SPR - IL-3Ra kd [1] | Molecule | also measured
6 | 126000 M⁻¹ s⁻¹ | 0.00741 s⁻¹ | 55C05: CD123 building block, SEQ ID NO: 11 (protein) VHH: EVQLVESGGGLVPAGDSLRLSCVASGRSLNTYTMGWFRQAPGKECEFVAAINWNGVYRDYADSAKGRFTASRDNAMNTVFLQMNSLKPEDTAVYFCATATQGWDRHTEPSDFGSWGLGTQVTVSS | –
7 | 42500 M⁻¹ s⁻¹ | 0.00487 s⁻¹ | 55F03: CD123 building block, SEQ ID NO: 13 (protein) VHH: EVQLVESGGGLVQAGGPLRLSCAASGRTFSSYVMGWFRQAPGKEREFVAAIYWSNGKTQYTDSVKGRFTISGDNAKNTVYLQMNSLNPEDTAVYYCVADKDETGFRTLPIAYDYWGLGTQVTVSS | –

— US20220242958A1, “BISPECIFIC NANOBODIES” (Ablynx N.V., priority 2013, published 2022)
